Results as given in article PMC5658516 (Cell Chemical Biology, 2017).

Target: T1, His10-Ub-Ub WT (UniProt P0CG48 1-76; P0CG48 1-76)
T1 construct: ubiquitin, distal moiety; ubiquitin, proximal moiety; two ubiquitins head to tail on one chain; also called linear diUb; M1-linked diUb; source: E. coli BL21-CodonPlus (DE3)-RIPL, purified (HisTrap, desalting); not shown: His10, N-terminal, kept
Test: pull-down; 20 μg OTULINcat-ST with equimolar His10-diUb in PBS, 0.1% BSA, 5% glycerol, 0.1% Triton-X, 2 h 4 °C; OTULINcat-ST held on Strep-Tactin Sepharose, eight washes with 0.5% Triton-X; western blot
Settings: both partners purified

binding result: binds
B1: OTULINcat-Strep-tag II C129A (domain or fragment, UniProt Q96BN8 80-352, looked up)
chain: LSVAPEMDIMDYCKKEWRGNTQKATCMKMGYEEVSQKFTSIRRVRGDNYAALRATLFQAMSQAVGLPPWLQDPELMLLPEKLISKYNWIKQWKLGLKFDGKNEDLVDKIKESLTLLRKKWAGLAEMRTAEARQIACDELFTNEAEEYSLYEAVKFLMLNRAIELYNDKEKGKEVPFFSVLLFARDTSNDPGQLLRNHLNQVGHTGGLEQVEMFLLAYAVRHTIQVYRLSKYNTEEFITVYPTDPPKDWPVVTLIAEDDRHYNIPVRVCEETSL
notes: also called OTULINcat C129A; OTULIN C129A; source: E. coli BL21-CodonPlus (DE3)-RIPL, purified (StrepTrap, desalting); not shown: Strep-tag II, C-terminal, kept
